# Target: Htz1(T46C)-2xFLAG (yeast histone H2A.Z with a cysteine probe) (S. cerevisiae)
# Test: cross-linking
Substance,percent of bulk H2A.Z in the H2A.Z-to-H2A.Z cross-linked adduct (WT cells),percent of bulk H2A.Z in the H2A-to-H2A.Z cross-linked adduct (WT cells)
Htz1(T46C)-2xFLAG (yeast histone H2A.Z with a cysteine probe) (natural protein),12%,
Hta1(N39C) (yeast histone H2A with a cysteine probe) (natural protein),,57%

# From article doi:10.1101/2023.12.06.570360
